Publication PMC7695167, “Targeting the Interaction between the SH3 Domain of Grb2 and Gab2” (Cells, 2020)
Several values for one entry are separate records, joined by “and”; a condition that tells them apart may be missing. Equal values may be shown once.

Biological target: Gab2 503-524 (Homo sapiens), Q9UQC2
Sequence (Q9UQC2 503-524): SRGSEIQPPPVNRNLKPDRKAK

B1: Grb2 C-SH3, P62993 (protein)
chain: QQPTYVQALFDFDPQEDGELGFRRGDFIHVMDNSDPNWWKGACHGQTGMFPRNYVTPVNR
- Kd: 100 µM and 22 µM
